{"source": "the emibetuzumab library of Makowski et al. (2022)", "parents": {"B1": {"name": "VH:VL chains; a variant is named by its letters at X, in order (parent)", "chain 1": "QVQLVQSGAEVKKPGASVKVSCKASGYTFTDYXMHWVRQAPGQGLEWMGXVNPNXXXTTYNQKFEGRVTMTTDTSTSTAYMELRSLRSDDTAVYYCARXNXLDXWGQGTTVTVSS", "chain 2": "DIQMTQSPSSLSASVGDRVTITCSVSSSVSSIYLHWYQQKPGKAPKLLIYSTSNLASGVPSRFSGSGSGTDFTLTISSLQPEDFATYYCQVYSGYPLTFGGGTKVEIK"}}}
{"variants_of": "B1", "test": "yeast display scFab, FACS + sequencing", "outline": "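Heavy-chain CDR mutant scFab yeast surface library, FACS-sorted after labelling with biotinylated ovalbumin (260 μg/mL in PBSB, 3 h, room temperature) or soluble membrane proteins (130 μg/mL, 20 min on ice), plus anti-Myc. Gates collected the top 25% and bottom 10% of binders, and samples from two replicates were deep sequenced. Non-specific binding call: a sequence was positive if found in ≥3 of 4 positive samples (membrane protein and ovalbumin pooled) and no negatives, and negative by the converse rule.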"}
{"variant": "FAATDSVS", "non-specific binding call": "binds"}
{"variant": "FAEGSYAF", "non-specific binding call": "binds"}
{"variant": "DAEGDDGA", "non-specific binding call": "no binding"}
{"variant": "DAEATDVA", "non-specific binding call": "no binding"}
{"variant": "VAATAAGA", "non-specific binding call": "no binding"}
{"variant": "DAEKDSGA", "non-specific binding call": "no binding"}
{"variant": "YAAGGDVA", "non-specific binding call": "no binding"}
{"variant": "VAARGFGS", "non-specific binding call": "no binding"}
{"variant": "DAAGASVD", "non-specific binding call": "no binding"}
{"variant": "DAGGASLD", "non-specific binding call": "no binding"}
{"variant": "SAARDAVA", "non-specific binding call": "no binding"}
{"variant": "VAGAGAGA", "non-specific binding call": "no binding"}
{"variant": "DAGGGDAV", "non-specific binding call": "no binding"}
{"variant": "DAGEAFSF", "non-specific binding call": "no binding"}
{"variant": "DAGGASSV", "non-specific binding call": "no binding"}
{"variant": "DAGGASSA", "non-specific binding call": "no binding"}
{"variant": "DAGGASSS", "non-specific binding call": "no binding"}
{"variant": "YAGGDDSA", "non-specific binding call": "no binding"}
{"variant": "YAAGSFGY", "non-specific binding call": "binds"}
{"variant": "YAAGGFAY", "non-specific binding call": "binds"}
{"variant": "DAGGGAVY", "non-specific binding call": "no binding"}
{"variant": "DAGGGAVV", "non-specific binding call": "no binding"}
{"variant": "DAGGGAVA", "non-specific binding call": "no binding"}
{"variant": "VAAAGAAV", "non-specific binding call": "no binding"}
{"variant": "AAAGGSWS", "non-specific binding call": "binds"}
{"variant": "SAAGGASD chain 1 L45S", "non-specific binding call": "no binding"}
{"variant": "AAEGDAAD", "non-specific binding call": "no binding"}
{"variant": "YAAETDVF", "non-specific binding call": "no binding"}
{"variant": "VAARGDAA", "non-specific binding call": "no binding"}
{"variant": "SAAGADWS", "non-specific binding call": "no binding"}
{"variant": "FAEGASSS", "non-specific binding call": "no binding"}
{"variant": "SAGGDYVF", "non-specific binding call": "no binding"}
{"variant": "DAAKNDAV", "non-specific binding call": "no binding"}
{"variant": "YAARGAWD", "non-specific binding call": "binds"}
{"variant": "FAEGAAGD", "non-specific binding call": "no binding"}
{"variant": "VAATASWV", "non-specific binding call": "no binding"}
{"variant": "SAGGGAGD", "non-specific binding call": "no binding"}
{"variant": "AAARNFLF chain 1 V68I", "non-specific binding call": "binds"}
{"variant": "YAGEASAV", "non-specific binding call": "no binding"}
{"variant": "DAARGAGD", "non-specific binding call": "no binding"}
{"variant": "YAEGASSF", "non-specific binding call": "no binding"}
{"variant": "VAEKGDVF", "non-specific binding call": "no binding"}
{"variant": "VAEKGFGA", "non-specific binding call": "no binding"}
{"variant": "DAGEAAGD", "non-specific binding call": "no binding"}
{"variant": "VAARGAAV", "non-specific binding call": "no binding"}
{"variant": "YAAGSSWD", "non-specific binding call": "binds"}
{"variant": "FAAGGAAS", "non-specific binding call": "binds"}
{"variant": "DAEESDGA", "non-specific binding call": "no binding"}
{"variant": "YAEESAGD", "non-specific binding call": "no binding"}
{"variant": "SAGGGAWV", "non-specific binding call": "no binding"}
{"variant": "FAAAGFVA", "non-specific binding call": "binds"}
{"variant": "VAGGDDGF", "non-specific binding call": "no binding"}
{"variant": "VAGGDDGA", "non-specific binding call": "no binding"}
{"variant": "FAAGGSGD", "non-specific binding call": "binds"}
{"variant": "DAGAADAV", "non-specific binding call": "no binding"}
{"variant": "DAGEGFVA", "non-specific binding call": "no binding"}
{"variant": "VAEKGALA", "non-specific binding call": "no binding"}
{"variant": "VAGGDAGV", "non-specific binding call": "no binding"}
{"variant": "VAEKGAGD", "non-specific binding call": "no binding"}
{"variant": "DAGGADWA", "non-specific binding call": "no binding"}
{"variant": "DAEATDGA", "non-specific binding call": "no binding"}
{"variant": "YAGGDSGV", "non-specific binding call": "no binding"}
{"variant": "SAAGGDGV chain 1 L45S", "non-specific binding call": "no binding"}
{"variant": "VAEKGSGA", "non-specific binding call": "no binding"}
{"variant": "VAGGDFGV", "non-specific binding call": "no binding"}
{"variant": "DAGGAAVA", "non-specific binding call": "no binding"}
{"variant": "DAGGAAVS", "non-specific binding call": "no binding"}
{"variant": "DAGEASAV", "non-specific binding call": "no binding"}
{"variant": "YAARAALD", "non-specific binding call": "binds"}
{"variant": "YAGGAYLY", "non-specific binding call": "no binding"}
{"variant": "DAGGADVY", "non-specific binding call": "no binding"}
{"variant": "DAGGADVA", "non-specific binding call": "no binding"}
{"variant": "YAGGDDAA", "non-specific binding call": "no binding"}
{"variant": "YAGGDDAV", "non-specific binding call": "no binding"}
{"variant": "DAEKGAWA", "non-specific binding call": "no binding"}
{"variant": "VAATADVA", "non-specific binding call": "no binding"}
{"variant": "VAGGDDAV", "non-specific binding call": "no binding"}
{"variant": "FAEGAAAV", "non-specific binding call": "no binding"}
{"variant": "VAEATDLY", "non-specific binding call": "no binding"}
{"variant": "DAGGASGV", "non-specific binding call": "no binding"}
{"variant": "AAEKDDLA", "non-specific binding call": "no binding"}
{"variant": "DAEGDAGD", "non-specific binding call": "no binding"}
{"variant": "VAEKGDLS", "non-specific binding call": "no binding"}
{"variant": "AAEGGYAV", "non-specific binding call": "binds"}
{"variant": "VAAKSAAA chain 1 R38K", "non-specific binding call": "no binding"}
{"variant": "YAEKDAGD", "non-specific binding call": "no binding"}
{"variant": "SAEEDDVY", "non-specific binding call": "no binding"}
{"variant": "SAERSAAF", "non-specific binding call": "no binding"}
{"variant": "DAARAVSS", "non-specific binding call": "binds"}
{"variant": "YAATADSS", "non-specific binding call": "no binding"}
{"variant": "YAARASGF", "non-specific binding call": "binds"}
{"variant": "VAEKGSSA", "non-specific binding call": "no binding"}
{"variant": "VAGGDDVA", "non-specific binding call": "no binding"}
{"variant": "VAGGDDVF", "non-specific binding call": "no binding"}
{"variant": "DAETAAAA", "non-specific binding call": "no binding"}
{"variant": "DAGGAAGV", "non-specific binding call": "no binding"}
{"variant": "DAGGAAGD", "non-specific binding call": "no binding"}
{"variant": "DAERTDGV", "non-specific binding call": "no binding"}
{"variant": "VAATADAV", "non-specific binding call": "no binding"}
{"variant": "SAARDFWV", "non-specific binding call": "no binding"}
{"variant": "VAEGGYAV", "non-specific binding call": "binds"}
{"variant": "YAGEGDGA", "non-specific binding call": "no binding"}
{"variant": "VAGGGAAV", "non-specific binding call": "no binding"}
{"variant": "DAGGADAY", "non-specific binding call": "no binding"}
{"variant": "DAGGADAV", "non-specific binding call": "no binding"}
{"variant": "SAAGGAAV chain 1 L45S", "non-specific binding call": "no binding"}
{"variant": "DAARGDGA", "non-specific binding call": "no binding"}
{"variant": "DAARGDGV", "non-specific binding call": "no binding"}
{"variant": "FAEGDDSA", "non-specific binding call": "no binding"}
{"variant": "YAEGDAAD", "non-specific binding call": "no binding"}
{"variant": "VAEAAVGD", "non-specific binding call": "binds"}
